According to article PMC9482650, “Quantitative fragmentomics allow affinity mapping of interactomes” (Nature Communications, 2022):

T1: DVL3, Q92997
T1 sequence (Q92997 244-331, limits assumed, looked up): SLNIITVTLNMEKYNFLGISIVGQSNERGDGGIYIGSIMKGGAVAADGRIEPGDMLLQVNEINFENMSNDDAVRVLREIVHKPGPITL

T2: SHANK1, Q9Y566
T2 sequence (Q9Y566 658-767, limits assumed, looked up): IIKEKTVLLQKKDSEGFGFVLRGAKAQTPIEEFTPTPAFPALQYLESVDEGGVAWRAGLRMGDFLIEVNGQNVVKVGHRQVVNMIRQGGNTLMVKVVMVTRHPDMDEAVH

T3: NHERF3_4, Q5T2W1
T3 sequence (Q5T2W1 373-468, limits assumed, looked up): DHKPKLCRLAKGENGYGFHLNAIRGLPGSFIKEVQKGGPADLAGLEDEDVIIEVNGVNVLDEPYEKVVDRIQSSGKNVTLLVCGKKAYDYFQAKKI

T4: DLG3_2, Q92796
T4 sequence (Q92796 221-321, limits assumed, looked up): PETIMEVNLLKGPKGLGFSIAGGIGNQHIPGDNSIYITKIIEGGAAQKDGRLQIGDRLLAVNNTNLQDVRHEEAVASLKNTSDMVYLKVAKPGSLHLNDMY

T5: APBA2_1, Q99767
T5 sequence (Q99767 563-664, limits assumed, looked up): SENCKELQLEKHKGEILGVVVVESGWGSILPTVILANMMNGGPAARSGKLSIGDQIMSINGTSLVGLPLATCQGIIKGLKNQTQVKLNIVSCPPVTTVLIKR

T6: MPDZ_12, O75970
T6 sequence (O75970 1857-1958, limits assumed, looked up): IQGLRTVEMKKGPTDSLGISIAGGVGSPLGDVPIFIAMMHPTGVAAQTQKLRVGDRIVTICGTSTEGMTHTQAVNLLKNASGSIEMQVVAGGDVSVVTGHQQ

T7: SNTG2, Q9NY99
T7 sequence (Q9NY99 68-166, limits assumed, looked up): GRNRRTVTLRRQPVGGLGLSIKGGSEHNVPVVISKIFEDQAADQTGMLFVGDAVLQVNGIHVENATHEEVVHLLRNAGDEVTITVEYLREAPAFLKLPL

T8: DLG3_1, Q92796
T8 sequence (Q92796 125-227, limits assumed, looked up): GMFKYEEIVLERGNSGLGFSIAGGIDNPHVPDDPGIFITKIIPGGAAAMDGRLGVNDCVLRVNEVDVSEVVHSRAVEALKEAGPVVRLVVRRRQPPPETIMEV

T9: PARD3B_1, Q8TEW8
T9 sequence (Q8TEW8 196-299, limits assumed, looked up): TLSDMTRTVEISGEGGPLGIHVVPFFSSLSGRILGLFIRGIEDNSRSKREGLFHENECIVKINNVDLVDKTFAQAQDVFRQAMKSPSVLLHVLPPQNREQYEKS

T10: RHPN1, Q8TCX5
T10 sequence (Q8TCX5 508-602, limits assumed, looked up): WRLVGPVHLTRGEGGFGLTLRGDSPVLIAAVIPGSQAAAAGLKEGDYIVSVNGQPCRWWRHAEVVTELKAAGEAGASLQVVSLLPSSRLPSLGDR

B1: APPL1, Q9UKG1 (peptide)
chain: EGGKKRESEA
B2: EZH1, Q92800 (peptide)
chain: VGIERETDVL

Biological target: GORASP2, Q9H8Y8
Assay: holdup assay
Set-up: key: below the threshold = too weak to quantify, mostly under pKd 3.1 to 4
Conditions: plain residues with an end cap or a label only (N-terminal biotin on a linker: ado-ado)

Row | Binder | pKd
1 | B1 | below the threshold
2 | B2 | below the threshold

Biological target: TJP1_2, Q07157
Sequence (Q07157 181-274): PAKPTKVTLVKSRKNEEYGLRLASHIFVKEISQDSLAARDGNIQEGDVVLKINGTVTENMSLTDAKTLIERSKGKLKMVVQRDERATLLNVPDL
Assay: holdup assay
Set-up: key: below the threshold = too weak to quantify, mostly under pKd 3.1 to 4
Conditions: plain residues with an end cap or a label only (N-terminal biotin on a linker: ado-ado)

Row | Binder | pKd
3 | B1 | below the threshold
4 | B2 | below the threshold

Biological target: GRID2IP_2, A4D2P6
Sequence (A4D2P6 272-370): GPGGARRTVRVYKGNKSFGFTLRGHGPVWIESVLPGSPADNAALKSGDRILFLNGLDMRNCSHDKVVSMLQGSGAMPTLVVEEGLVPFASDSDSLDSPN
Assay: holdup assay
Set-up: key: below the threshold = too weak to quantify, mostly under pKd 3.1 to 4
Conditions: plain residues with an end cap or a label only (N-terminal biotin on a linker: ado-ado)

Row | Binder | pKd
5 | B1 | below the threshold
6 | B2 | below the threshold

Biological target: T1, DVL3, Q92997
Assay: holdup assay
Set-up: key: below the threshold = too weak to quantify, mostly under pKd 3.1 to 4
Conditions: plain residues with an end cap or a label only (N-terminal biotin on a linker: ado-ado)

Row | Binder | pKd
7 | B1 | below the threshold
8 | B2 | below the threshold

Biological target: T2, SHANK1, Q9Y566
Assay: holdup assay
Set-up: key: below the threshold = too weak to quantify, mostly under pKd 3.1 to 4
Conditions: plain residues with an end cap or a label only (N-terminal biotin on a linker: ado-ado)

Row | Binder | pKd
9 | B1 | below the threshold
10 | B2 | below the threshold

Biological target: T3, NHERF3_4, Q5T2W1
Assay: holdup assay
Set-up: key: below the threshold = too weak to quantify, mostly under pKd 3.1 to 4
Conditions: plain residues with an end cap or a label only (N-terminal biotin on a linker: ado-ado)

Row | Binder | pKd
11 | B1 | below the threshold
12 | B2 | below the threshold

Biological target: Inadl_8, Q8NI35
Sequence (Q8NI35 1425-1530): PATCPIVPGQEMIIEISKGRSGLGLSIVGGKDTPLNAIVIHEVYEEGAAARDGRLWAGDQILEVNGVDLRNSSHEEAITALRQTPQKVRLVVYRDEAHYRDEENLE
Assay: holdup assay
Set-up: key: below the threshold = too weak to quantify, mostly under pKd 3.1 to 4
Conditions: plain residues with an end cap or a label only (N-terminal biotin on a linker: ado-ado)

Row | Binder | pKd
13 | B1 | below the threshold
14 | B2 | below the threshold

Biological target: SCRIB_2, Q14160
Sequence (Q14160 857-960): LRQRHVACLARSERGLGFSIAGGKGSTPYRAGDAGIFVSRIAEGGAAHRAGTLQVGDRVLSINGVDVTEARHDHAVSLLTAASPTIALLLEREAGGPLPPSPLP
Assay: holdup assay
Set-up: key: below the threshold = too weak to quantify, mostly under pKd 3.1 to 4
Conditions: plain residues with an end cap or a label only (N-terminal biotin on a linker: ado-ado)

Row | Binder | pKd
15 | B1 | below the threshold
16 | B2 | below the threshold

Biological target: MAST1, Q9Y2H9
Sequence (Q9Y2H9 962-1065): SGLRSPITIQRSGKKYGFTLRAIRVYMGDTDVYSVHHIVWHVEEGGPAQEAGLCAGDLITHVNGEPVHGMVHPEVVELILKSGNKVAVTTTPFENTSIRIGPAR
Assay: holdup assay
Set-up: key: below the threshold = too weak to quantify, mostly under pKd 3.1 to 4
Conditions: plain residues with an end cap or a label only (N-terminal biotin on a linker: ado-ado)

Row | Binder | pKd
17 | B1 | 4.12
18 | B2 | below the threshold

Biological target: GOPC, Q9HD26
Assay: holdup assay
Set-up: key: below the threshold = too weak to quantify, mostly under pKd 3.1 to 4
Conditions: plain residues with an end cap or a label only (N-terminal biotin on a linker: ado-ado)

Row | Binder | pKd
19 | B1 | below the threshold
20 | B2 | below the threshold

Biological target: T4, DLG3_2, Q92796
Assay: holdup assay
Set-up: key: below the threshold = too weak to quantify, mostly under pKd 3.1 to 4
Conditions: plain residues with an end cap or a label only (N-terminal biotin on a linker: ado-ado)

Row | Binder | pKd
21 | B1 | 4.22
22 | B2 | 3.54

Biological target: T5, APBA2_1, Q99767
Assay: holdup assay
Set-up: key: below the threshold = too weak to quantify, mostly under pKd 3.1 to 4
Conditions: plain residues with an end cap or a label only (N-terminal biotin on a linker: ado-ado)

Row | Binder | pKd
23 | B1 | below the threshold
24 | B2 | below the threshold

Biological target: T6, MPDZ_12, O75970
Assay: holdup assay
Set-up: key: below the threshold = too weak to quantify, mostly under pKd 3.1 to 4
Conditions: plain residues with an end cap or a label only (N-terminal biotin on a linker: ado-ado)

Row | Binder | pKd
25 | B1 | 3.54
26 | B2 | below the threshold

Biological target: MAST2, Q6P0Q8
Sequence (Q6P0Q8 1099-1202): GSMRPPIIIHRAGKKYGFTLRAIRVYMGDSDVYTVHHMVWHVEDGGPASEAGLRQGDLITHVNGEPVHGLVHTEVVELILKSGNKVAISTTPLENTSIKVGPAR
Assay: holdup assay
Set-up: key: below the threshold = too weak to quantify, mostly under pKd 3.1 to 4
Conditions: plain residues with an end cap or a label only (N-terminal biotin on a linker: ado-ado)

Row | Binder | pKd
27 | B1 | below the threshold
28 | B2 | 3.88

Biological target: PARD3_3, Q8TEW0
Sequence (Q8TEW0 582-685): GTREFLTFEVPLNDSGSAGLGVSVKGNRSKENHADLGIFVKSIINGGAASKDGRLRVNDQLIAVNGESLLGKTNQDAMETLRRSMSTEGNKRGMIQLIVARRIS
Assay: holdup assay
Set-up: key: below the threshold = too weak to quantify, mostly under pKd 3.1 to 4
Conditions: plain residues with an end cap or a label only (N-terminal biotin on a linker: ado-ado)

Row | Binder | pKd
29 | B1 | below the threshold
30 | B2 | 3.67

Biological target: T7, SNTG2, Q9NY99
Assay: holdup assay
Set-up: key: below the threshold = too weak to quantify, mostly under pKd 3.1 to 4
Conditions: plain residues with an end cap or a label only (N-terminal biotin on a linker: ado-ado)

Row | Binder | pKd
31 | B1 | below the threshold
32 | B2 | below the threshold

Biological target: FRMPD2_1, Q68DX3
Sequence (Q68DX3 770-861): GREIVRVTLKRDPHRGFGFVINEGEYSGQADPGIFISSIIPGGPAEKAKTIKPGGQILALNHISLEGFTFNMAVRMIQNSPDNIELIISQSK
Assay: holdup assay
Set-up: key: below the threshold = too weak to quantify, mostly under pKd 3.1 to 4
Conditions: plain residues with an end cap or a label only (N-terminal biotin on a linker: ado-ado)

Row | Binder | pKd
33 | B1 | below the threshold
34 | B2 | below the threshold

Biological target: T8, DLG3_1, Q92796
Assay: holdup assay
Set-up: key: below the threshold = too weak to quantify, mostly under pKd 3.1 to 4
Conditions: plain residues with an end cap or a label only (N-terminal biotin on a linker: ado-ado)

Row | Binder | pKd
35 | B1 | below the threshold
36 | B2 | below the threshold

Biological target: GRIP2_4, Q9C0E4
Sequence (Q9C0E4 446-548): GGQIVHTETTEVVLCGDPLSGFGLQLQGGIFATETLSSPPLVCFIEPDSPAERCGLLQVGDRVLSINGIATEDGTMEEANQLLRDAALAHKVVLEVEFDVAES
Assay: holdup assay
Set-up: key: below the threshold = too weak to quantify, mostly under pKd 3.1 to 4
Conditions: plain residues with an end cap or a label only (N-terminal biotin on a linker: ado-ado)

Row | Binder | pKd
37 | B1 | below the threshold
38 | B2 | below the threshold

Biological target: LNX1_2, Q8TBB1
Sequence (Q8TBB1 371-470): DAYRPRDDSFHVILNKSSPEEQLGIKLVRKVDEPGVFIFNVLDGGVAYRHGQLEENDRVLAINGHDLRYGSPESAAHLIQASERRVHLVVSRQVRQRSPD
Assay: holdup assay
Set-up: key: below the threshold = too weak to quantify, mostly under pKd 3.1 to 4
Conditions: plain residues with an end cap or a label only (N-terminal biotin on a linker: ado-ado)

Row | Binder | pKd
39 | B1 | below the threshold
40 | B2 | below the threshold

Biological target: Inadl_6, Q8NI35
Sequence (Q8NI35 1058-1167): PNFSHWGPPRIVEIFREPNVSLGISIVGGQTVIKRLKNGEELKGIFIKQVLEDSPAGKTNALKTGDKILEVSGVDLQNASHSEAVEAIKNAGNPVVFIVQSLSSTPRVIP
Assay: holdup assay
Set-up: key: below the threshold = too weak to quantify, mostly under pKd 3.1 to 4
Conditions: plain residues with an end cap or a label only (N-terminal biotin on a linker: ado-ado)

Row | Binder | pKd
41 | B1 | below the threshold
42 | B2 | below the threshold

Biological target: SCRIB_1, Q14160
Sequence (Q14160 718-814): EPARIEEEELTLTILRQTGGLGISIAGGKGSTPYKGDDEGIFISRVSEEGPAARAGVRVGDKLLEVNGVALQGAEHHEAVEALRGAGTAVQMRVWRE
Assay: holdup assay
Set-up: key: below the threshold = too weak to quantify, mostly under pKd 3.1 to 4
Conditions: plain residues with an end cap or a label only (N-terminal biotin on a linker: ado-ado)

Row | Binder | pKd
43 | B1 | below the threshold
44 | B2 | below the threshold

Biological target: T9, PARD3B_1, Q8TEW8
Assay: holdup assay
Set-up: key: below the threshold = too weak to quantify, mostly under pKd 3.1 to 4
Conditions: plain residues with an end cap or a label only (N-terminal biotin on a linker: ado-ado)

Row | Binder | pKd
45 | B1 | below the threshold
46 | B2 | 3.65

Biological target: LIMK2, P53671
Sequence (P53671 143-248): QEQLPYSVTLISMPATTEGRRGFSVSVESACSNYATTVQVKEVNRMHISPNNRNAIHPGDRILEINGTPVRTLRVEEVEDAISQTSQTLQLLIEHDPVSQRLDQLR
Assay: holdup assay
Set-up: key: below the threshold = too weak to quantify, mostly under pKd 3.1 to 4
Conditions: plain residues with an end cap or a label only (N-terminal biotin on a linker: ado-ado)

Row | Binder | pKd
47 | B1 | below the threshold
48 | B2 | below the threshold

Biological target: LNX1_1, Q8TBB1
Sequence (Q8TBB1 261-371): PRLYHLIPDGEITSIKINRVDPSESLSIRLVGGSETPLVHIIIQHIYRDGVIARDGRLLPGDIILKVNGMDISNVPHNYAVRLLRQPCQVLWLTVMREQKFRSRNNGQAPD
Assay: holdup assay
Set-up: key: below the threshold = too weak to quantify, mostly under pKd 3.1 to 4
Conditions: plain residues with an end cap or a label only (N-terminal biotin on a linker: ado-ado)

Row | Binder | pKd
49 | B1 | below the threshold
50 | B2 | below the threshold

Biological target: IL16_3, Q14005
Sequence (Q14005 1107-1207): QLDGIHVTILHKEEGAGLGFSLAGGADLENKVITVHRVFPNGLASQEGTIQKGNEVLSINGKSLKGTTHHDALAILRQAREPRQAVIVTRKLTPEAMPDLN
Assay: holdup assay
Set-up: key: below the threshold = too weak to quantify, mostly under pKd 3.1 to 4
Conditions: plain residues with an end cap or a label only (N-terminal biotin on a linker: ado-ado)

Row | Binder | pKd
51 | B1 | below the threshold
52 | B2 | below the threshold

Biological target: T10, RHPN1, Q8TCX5
Assay: holdup assay
Set-up: key: below the threshold = too weak to quantify, mostly under pKd 3.1 to 4
Conditions: plain residues with an end cap or a label only (N-terminal biotin on a linker: ado-ado)

Row | Binder | pKd
53 | B1 | below the threshold
54 | B2 | below the threshold
